Test results from FireProtDB (doi:10.1002/pro.5560050915).

Details: Bos taurus; pH 8.5; Thermal; DSC; ascorbate 1 mM; whole UniProt chain shown

B1: Adrenodoxin, mitochondrial wild type, P00257 (protein)
chain: MAARLLRVASAALGDTAGRWRLLARPRAGAGGLRGSRGPGLGGGAVATRTLSVSGRAQSSSEDKITVHFINRDGETLTTKGKIGDSLLDVVVQNNLDIDGFGACEGTLACSTCHLIFEQHIFEKLEAITDEENDMLDLAYGLTDRSRLGCQICLTKAMDNMTVRVPDAVSDARESIDMGMNSSKIE
With B1 the Tm was 51.4 °C, the “heat capacity change of unfolding” value was 1.79 kcal/mol/K and the “unfolding enthalpy (calorimetric)” value was 84.8 kcal/mol.
